# From patent US20240228562A1 (Pieris, published 2024)
# Substitutions are numbered along the chain they refer to.
# T1: mouse CTGF (Abbexa) (mouse, UniProt P29268 26-348, limits assumed)
# T1 construct: also called Murine CTGF; mCTGF
# T1 sequence (looked up): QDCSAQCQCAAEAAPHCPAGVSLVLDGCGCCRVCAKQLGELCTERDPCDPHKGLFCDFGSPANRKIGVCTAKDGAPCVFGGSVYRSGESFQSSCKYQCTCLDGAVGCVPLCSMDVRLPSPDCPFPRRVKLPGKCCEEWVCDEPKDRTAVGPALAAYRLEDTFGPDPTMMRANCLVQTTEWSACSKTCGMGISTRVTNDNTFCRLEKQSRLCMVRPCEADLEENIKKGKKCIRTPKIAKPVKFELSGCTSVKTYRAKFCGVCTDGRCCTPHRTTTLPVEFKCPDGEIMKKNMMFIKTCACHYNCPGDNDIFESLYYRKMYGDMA
# T2: recombinant rat CTGF protein (R&D Systems) (rat, UniProt Q9R1E9 25-347)
# T2 construct: Bought; also called rCTGF
# T2 sequence: T1 sequence (looked up) with H16R, A148V
# B1: lipocalin mutein of SEQ ID NO: 27 (designed binder)
# chain: QDSTSDLIPAPPLSKVPLQQNFQDNQFQGKWYVVGLAGNYRLREDKDPSKMGATIYELKEDKSYDVTQVQFDDKKCLYVIETFVPGSQPGEFTLGAIKSYPGLTSQLVRVVSTNYNQHAMVFLKKVYGSEEYFHITLYGRTKELTSELKENFIRFSKSLGLPENHIVFPVPIDQCIDG
# notes: also called hNGAL mutein; not shown: C-terminal His-tag
# B2: lipocalin mutein of SEQ ID NO: 28 (designed binder)
# chain: B1 chain with L123V, Y127W, G128P, S129N, E130L, H134Q, T136V
# notes: as for B1
# B3: lipocalin mutein of SEQ ID NO: 26 (designed binder)
# chain: B1 chain with A96N, S99V, G102T, T104E, L123F, G128Q, S129N, E130R, Y132V, H134W
# notes: as for B1
# B4: lipocalin mutein of SEQ ID NO: 30 (designed binder)
# chain: QDSTSDLIPAPPLSKVPLQQNFQDNQFHGKWYVVGWAGNIKLREDKDPFKMSATIYELKEDKSYDVTEVVFEQKKCHYIIKTFVPGSQPGEFTLGDIKSPPGETSSLVRVVSTNYNQHAMVFFKKVFQNREFFWITLYGRTKELTSELKENFIRFSKSLGLPENHIVFPVPIDQCIDG
# notes: also called optimized lipocalin mutein; hNGAL mutein
# B5: lipocalin mutein of SEQ ID NO: 33 (designed binder)
# chain: QDSTSDLIPAPPLSKVPLQQNFQDNQFQGKWYVVGWAGNAKLREDKQPFKMSATIYELKEDKSYDVTEVVFEQKKCHYIIKTFVPGSQPGEFTEGNYKRRPRLWSDLVRVVSTNYNQHAMVFFKKVHQNREFFWITLYGRTKELTSELKENFIRFSKSLGLPENHIVFPVPIDQCIDG
# notes: as for B1
# B6: lipocalin mutein of SEQ ID NO: 32 (designed binder)
# chain: QDSTSDLIPAPPLSKVPLQQNFQDNQFQGKWYVVGWAGNVKLREDKQPFKMSATIYELKEDKSYDVTEVVFEQKKCHYIIKTFVPGSQPGEFTLSPISSSPGLVSHLVRVVSTNYNQHAMVFFKKVHQNREFFWITLYGRTKELTSELKENFIRFSKSLGLPENHIVFPVPIDQCIDG
# notes: as for B1
# B7: lipocalin mutein of SEQ ID NO: 8 (designed binder)
# chain: QDSTSDLIPAPPLSKVPLQQNFQDNQFQGKWYVVGLAGNYGLRTDKRPSKMFATIYELKEDKSYDVTSVRFEQERCHYTIRTFVPGSQPGEFTSGNIGNYPGSYSTLVRVVSTNYNQHAMVFFKSVIQNREYFAITLYGRTKELTSELKENFIRFSKSLGLPENHIVFPVPIDQCIDG
# notes: as for B1
# B8: lipocalin mutein of SEQ ID NO: 16 (designed binder)
# chain: QDSTSDLIPAPPLSKVPLQQNFQDNQFQGKWYVVGLAGNAILRTDKQPAKMFATIYELKEDKSYDVTSVRFEAKSCVYTIKTFVPGSQPGEFTAGNIKSAPGQTSTLVRVVSTNYNQHAMVFFKHVSQNREFFVITLYGRTKELTSELKENFIRFSKSLGLPENHIVFPVPIDQCIDG
# notes: as for B1
# B9: lipocalin mutein of SEQ ID NO: 11 (designed binder)
# chain: B8 chain with T44E, V77S, I80S, F132T
# notes: as for B1
# B10: lipocalin mutein of SEQ ID NO: 12 (designed binder)
# chain: B8 chain with T44E, Q47Y, A73N, A94T
# notes: as for B1
# B11: lipocalin mutein of SEQ ID NO: 19 (designed binder)
# chain: B8 chain with T44E, V77S, F123H, H125A, F132S
# notes: as for B1
# B12: lipocalin mutein of SEQ ID NO: 22 (designed binder)
# chain: B8 chain with L36I, T44V, F132I
# notes: as for B1
# B13: lipocalin mutein of SEQ ID NO: 14 (designed binder)
# chain: B8 chain with T44E, Q47Y, V77I, A94R, F132I
# notes: as for B1
# B14: lipocalin mutein of SEQ ID NO: 18 (designed binder)
# chain: B8 chain with L36I, T44D, Q47Y, A73N, V77I, A94H, A100H, F132I
# notes: as for B1
# B15: lipocalin mutein of SEQ ID NO: 10 (designed binder)
# chain: B8 chain with T44E, V77S, F123W, H125S, S127A, Q128G, N129T, F132S, V134N, T136A
# notes: as for B1
# B16: lipocalin mutein of SEQ ID NO: 13 (designed binder)
# chain: B8 chain with T44E, Q47Y, A73N, I80S, A94T
# notes: as for B1
# B17: lipocalin mutein of SEQ ID NO: 21 (designed binder)
# chain: B8 chain with T44E, V77S, H125A, S127R, Q128G, N129A, F132S, V134N, T136A
# notes: as for B1
# B18: lipocalin mutein of SEQ ID NO: 4 (designed binder)
# chain: QDSTSDLIPAPPLSKVPLQQNFQDNQFHGKWYVVGRAGNNRLREDKDPPKMWATIYELKEDKSYDVTHVHFMTKKCRYIIDTFVPGSQPGEFTLGAIKSGPGMTSPLVRIVSTNYNQHAMVFFKWVNQNREWFTITLYGRTKELTSELKENFIRFSKSLGLPENHIVFPVPIDQCIDG
# notes: as for B4
# B19: lipocalin mutein of SEQ ID NO: 5 (designed binder)
# chain: QDSTSDLIPAPPLSKVPLQQNFQDNQFQGKWYVVGKAGNALREDKEPPKMWATIYELKEDKSYDVTHVHFLTKKCKYLIDTFVPGSQPGEFTIGAIKSGPGLTSPLVRVVSTNYNQHAMVFFKWVSQNREWFTITLYGRTKELTSELKENFIRFSKSLGLPENHIVFPVPIDQCIDG
# notes: as for B1
# How the values were obtained:
# Assay in all cases: SPR (Biacore)
# [1] = target: T3, recombinant human CTGF-Fc protein (Creative Biomart) (human)
# T3 construct: Bought; also called human CTGF with a human IgG1 Fc Tag
# T3 sequence (chain, as listed by the source limits assumed): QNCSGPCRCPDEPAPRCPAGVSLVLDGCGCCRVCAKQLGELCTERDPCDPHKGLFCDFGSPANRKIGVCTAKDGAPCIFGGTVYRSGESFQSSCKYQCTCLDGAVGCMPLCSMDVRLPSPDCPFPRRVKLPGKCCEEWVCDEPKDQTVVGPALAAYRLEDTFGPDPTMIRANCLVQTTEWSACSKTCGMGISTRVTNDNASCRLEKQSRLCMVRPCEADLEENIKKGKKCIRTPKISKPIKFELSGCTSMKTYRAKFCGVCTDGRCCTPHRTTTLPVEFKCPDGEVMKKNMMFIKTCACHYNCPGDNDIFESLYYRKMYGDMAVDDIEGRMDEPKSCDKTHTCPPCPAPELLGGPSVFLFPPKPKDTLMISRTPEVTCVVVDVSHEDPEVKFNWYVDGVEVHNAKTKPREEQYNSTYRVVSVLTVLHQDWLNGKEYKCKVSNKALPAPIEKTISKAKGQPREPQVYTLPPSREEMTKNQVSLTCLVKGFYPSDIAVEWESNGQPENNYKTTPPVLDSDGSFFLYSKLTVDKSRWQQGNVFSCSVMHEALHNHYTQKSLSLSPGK
# Experimental: (§1) The binding of exemplary lipocalin muteins to human (Creative Biomart), cynomolgus, rat (R&D Systems) and mouse CTGF (Abbexa) was determined by SPR using a Biacore instrument (Cytiva, formerly GE Healthcare). Some targets were fused to a human IgG1 Fc tag, and captured via the anti-human IgG antibody kit, others were directly immobilized.
# (§2) For some measurements, human CTGF with a human IgG1 Fc Tag or rat or murine CTGF without a tag were directly immobilized to a CM5 Chip. The carboxyl groups on the chip were activated using 1-ethyl-3-(3-dimethylaminopropyl)-carbodiimide (EDC) and N-hydroxysuccinimide (NHS). […] Residual non-reacted NHS-esters were blocked by passing a solution of 1 M ethanolamine across the surface. The reference channel was activated/deactivated. For the capture setting, targets with an IgG Fc Tag at 0.25-2.5 μg/mL in HBS-EP+ buffer were captured by the anti-human IgG-Fc antibody at the chip surface for 180 s at a flow rate of 10 μL/min.
# (§3) The binding assay was carried out with a contact time of 180 s, a dissociation time of 900-3600 s and a flow rate of 30 μL/min. All measurements were performed at 25° C. […] For the directly immobilized targets, the same regeneration conditions were used. Prior to the protein measurements, three startup cycles were performed for conditioning purposes.
# mouse CTGF (Abbexa) = target: T1, mouse CTGF (Abbexa)
# Experimental: as §1, §2, §3
# [2] = target: T2, recombinant rat CTGF protein (R&D …)
# Experimental: as §1, §2, §3
Binder,Kd [1],koff [1],kon [1],Kd (mouse CTGF (Abbexa)),koff (mouse CTGF (Abbexa)),kon (mouse CTGF (Abbexa)),binding result [1],Kd [2],koff [2],kon [2]
B1,802 pM,2.45e-05 s⁻¹,30500 M⁻¹ s⁻¹,4160 pM,0.000172 s⁻¹,41400 M⁻¹ s⁻¹,–,–,–,–
B2,517 pM,2.61e-05 s⁻¹,50400 M⁻¹ s⁻¹,1360 pM,8.23e-05 s⁻¹,60700 M⁻¹ s⁻¹,–,–,–,–
B3,1320 pM,3.06e-05 s⁻¹,23200 M⁻¹ s⁻¹,5900 pM,0.000208 s⁻¹,35300 M⁻¹ s⁻¹,–,–,–,–
B4,–,–,–,–,–,–,binds,–,–,–
B5,99 pM,1.71e-05 s⁻¹,172000 M⁻¹ s⁻¹,301 pM,5.29e-05 s⁻¹,176000 M⁻¹ s⁻¹,–,226 pM,6.3e-05 s⁻¹,279000 M⁻¹ s⁻¹
B6,587 pM,6.39e-05 s⁻¹,109000 M⁻¹ s⁻¹,1980 pM,0.000264 s⁻¹,133000 M⁻¹ s⁻¹,–,–,–,–
B7,2520 pM,0.000114 s⁻¹,45400 M⁻¹ s⁻¹,1820 pM,0.000131 s⁻¹,72000 M⁻¹ s⁻¹,–,–,–,–
B8,760 pM,7.02e-05 s⁻¹,92300 M⁻¹ s⁻¹,393 pM,6.34e-05 s⁻¹,161000 M⁻¹ s⁻¹,–,–,–,–
B9,2440 pM,0.000108 s⁻¹,44400 M⁻¹ s⁻¹,1020 pM,8.19e-05 s⁻¹,80100 M⁻¹ s⁻¹,–,–,–,–
B10,2400 pM,0.000133 s⁻¹,55600 M⁻¹ s⁻¹,1400 pM,0.000128 s⁻¹,91400 M⁻¹ s⁻¹,–,–,–,–
B11,918 pM,5.2e-05 s⁻¹,56600 M⁻¹ s⁻¹,273 pM,2.54e-05 s⁻¹,93200 M⁻¹ s⁻¹,–,–,–,–
B12,57 pM,8.05e-06 s⁻¹,142000 M⁻¹ s⁻¹,–,–,–,–,221 pM,4.01e-05 s⁻¹,181000 M⁻¹ s⁻¹
B13,523 pM,5.34e-05 s⁻¹,102000 M⁻¹ s⁻¹,369 pM,7.03e-05 s⁻¹,190000 M⁻¹ s⁻¹,–,–,–,–
B14,74 pM,3.05e-06 s⁻¹,40900 M⁻¹ s⁻¹,–,–,–,–,–,–,–
B15,33 pM,2.23e-06 s⁻¹,67700 M⁻¹ s⁻¹,–,–,–,–,460 pM,4.08e-05 s⁻¹,88800 M⁻¹ s⁻¹
B16,49 pM,2.51e-06 s⁻¹,51000 M⁻¹ s⁻¹,–,–,–,–,–,–,–
B17,523 pM,6.63e-05 s⁻¹,127000 M⁻¹ s⁻¹,173 pM,3.94e-05 s⁻¹,228000 M⁻¹ s⁻¹,–,–,–,–
B18,–,–,–,–,–,–,binds,–,–,–
B19,315 pM,6.65e-05 s⁻¹,211000 M⁻¹ s⁻¹,–,–,–,–,1230 pM,0.000362 s⁻¹,294000 M⁻¹ s⁻¹
